Consider 5 molecules from PMC5551578 (2017).

In the assay the target is T1, tetanus toxoid (UniProt P04958 1-1315).
T1 chain: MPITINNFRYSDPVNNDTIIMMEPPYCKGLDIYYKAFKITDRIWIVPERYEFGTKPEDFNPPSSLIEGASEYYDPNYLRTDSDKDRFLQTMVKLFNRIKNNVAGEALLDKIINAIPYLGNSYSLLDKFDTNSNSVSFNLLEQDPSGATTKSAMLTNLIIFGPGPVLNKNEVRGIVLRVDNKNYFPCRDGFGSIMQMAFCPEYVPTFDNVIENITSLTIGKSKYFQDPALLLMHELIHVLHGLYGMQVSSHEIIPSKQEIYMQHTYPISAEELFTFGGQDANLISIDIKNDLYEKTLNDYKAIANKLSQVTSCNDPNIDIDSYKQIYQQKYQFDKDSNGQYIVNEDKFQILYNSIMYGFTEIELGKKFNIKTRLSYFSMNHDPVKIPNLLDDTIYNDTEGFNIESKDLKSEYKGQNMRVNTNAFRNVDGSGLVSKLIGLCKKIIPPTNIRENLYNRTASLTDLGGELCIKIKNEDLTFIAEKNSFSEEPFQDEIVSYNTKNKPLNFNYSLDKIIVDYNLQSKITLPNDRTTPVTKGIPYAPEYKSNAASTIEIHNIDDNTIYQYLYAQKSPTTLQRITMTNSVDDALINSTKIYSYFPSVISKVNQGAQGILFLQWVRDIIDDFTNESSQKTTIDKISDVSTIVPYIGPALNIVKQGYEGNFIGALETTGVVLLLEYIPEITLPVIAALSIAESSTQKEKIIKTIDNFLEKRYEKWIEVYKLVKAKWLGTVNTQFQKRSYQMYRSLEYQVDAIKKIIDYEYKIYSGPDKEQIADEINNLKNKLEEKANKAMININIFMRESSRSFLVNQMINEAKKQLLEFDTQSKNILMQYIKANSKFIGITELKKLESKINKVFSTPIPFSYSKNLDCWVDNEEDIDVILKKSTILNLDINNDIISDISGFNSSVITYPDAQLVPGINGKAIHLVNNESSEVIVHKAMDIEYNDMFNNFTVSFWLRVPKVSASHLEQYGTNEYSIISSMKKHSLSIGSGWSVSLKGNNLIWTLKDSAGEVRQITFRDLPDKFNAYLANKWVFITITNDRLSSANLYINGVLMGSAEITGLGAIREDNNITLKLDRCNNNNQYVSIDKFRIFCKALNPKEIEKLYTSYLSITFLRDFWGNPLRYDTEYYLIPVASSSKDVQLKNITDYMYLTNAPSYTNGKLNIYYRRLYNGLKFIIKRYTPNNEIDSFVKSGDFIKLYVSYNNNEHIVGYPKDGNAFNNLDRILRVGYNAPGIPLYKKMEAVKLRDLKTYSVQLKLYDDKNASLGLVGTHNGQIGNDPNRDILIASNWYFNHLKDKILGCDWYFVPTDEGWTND
Nature of the assay: ELISA. (In general: ELISA stands for enzyme-linked immunosorbent assay.)

B1: TT-Ab10 (antibody, V domains shown)
VH: EVQLVESGGGLVQPGGSLRVSCGASGFTFANFWMSWVRQAPGKGLEWVANINQDGNERKYVDSVKGRFTISRDNDKNSLYLQMNSLRAEDTAVYFCAREYGSYWRTYYFDDWGQGTLVTVSS
VL: DIVMTQSPATLSLSPGERATLSCRASQSVSNYLAWYQQKPGQAPRLLIYDASNRASGTPARFSGSGFGTDFTLTISSLDPEDFAVYYCQQGSNWLTFGGGTKVEIK
As for B1, the EC50 is 869 nM.

B2: TT-Ab4 (antibody, V domains shown)
VH: EVQLVQSGAEMKKPGSSVKVSCRMSGGKFNNYAMSWVRQAPGQGLEWVGGIIPVLGTANYAQKFQDRVAITADKSTNTAYMELSSLRSDDTAVYYCARVWGTVVTQGPSQVQYNHYGMDVWGQGTTVTVSS
VL: DIQLTQSPSSLSASVGDRVTITCRATQSISSSLNWYQHKPGKAPNLLISAASNLQSGVPSRFSGSGSRTDFTLTITNLQPEDFATYYCQQSYTTPLTFGGGTKVEIK
Turning to B2, the EC50 amounted to 1060 nM.

B3: TT-Ab12 (antibody, V domains shown)
VH: QVQLQESGPGLVKPSETLSLTCNVSGASISRYYWAWIRQPPGKGLEWIGYIYDSGTTTYNTSLKSRVTISRDTSKNQFSLNMMSVTAADTAVYYCARARYYYDSTGYFYGWLDPWGQGRLVTVSF
VL: DIQMTQSPSTLSASVGDRVTITCRASQSINIWLAWYQQRPGKAPDLLIYKASTLQSGVPSRFSGSGSGTEFTLTISSVQPDDFATYYCQQYKSYSCSFGQGTKVEIN
The molecule B3 displayed an EC50 of 228 nM.

B4: TT-Ab9 (antibody, V domains shown)
VH: EVQLVESGGSLVQPGGSLRLSCVGTGFTFNTYWMSWVRQAPGKGLEWVANIKQDGREKHYVDSVMGRFTVSRDNAMNALYLQVNSLRVEDTAVYYCARGMTAWSLGGYQYDYWGQGTQVTVSS
VL: DIQMTQSPSSLSASVGDTVTITCRASQGIRSDLGWYQQRPGKAPKLLVYTASTLQTGVPSRFSGSGFGTDFTLTISSLQPEDFATYYCLQNYNYPRTFGQGTKVEIK
For B4, a half-maximal effect (EC50) was put at 1050 nM.

B5: TT-Ab7 (antibody, V domains shown)
VH: EVQLVESGGGWVQPGGSLRLSCAASGFTFNSFGSYGMSWVRQAPGKGLEWVSHISASGAATYYADSVKGRFTISRDNSKNTLLLQMNDLRGEDTATYYCARSVQQYLGLLGYWGQGTLVTVSS
VL: QSVLTQSPSASASLGATVKLTCTLSSGHTNYAIAWHQLQPQKAPRYLLKISNDGSHKRGDGIPDRFSGSSSGAERYLTISSLQSEDEAEYYCQTWGAGMGMFGGGTKLTVL
Turning to B5, the EC50 is 655 nM.

As usually defined, the EC50 is the midpoint of the concentration-response curve. Higher therefore signals a need for much substance.
